Measured values taken from the supplement of paper PMC10126150.
± gives the standard deviation of the averaged measurements.
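Note: ATP exposure 15 min at 22 °C before imaging.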

These sequences were tested on ATP (assay: switch fluorescence ratio, 500 uM ATP over buffer (Cy3 cluster intensity, sum of 5 cycles each) (fold (ratio)); higher = stronger signal-on switching upon ATP binding; sequences stand for … in TCGTCGGCAGCGTCAGATGTGTATAAGAGACAGTTTTTTTTTTTTTTTTTTTTTTTTT…TC). Details: aptamer strand: ATP DNA aptamer (quencher-CACCTGGGGGAGTATTGCGGAGGAAGG + anchor), 100 nM annealed; ATP concentration: 500 uM.
Summary of the method: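 The quencher-labelled ATP aptamer, at 100 nM, was annealed to Cy3-labelled switching-strand clusters on a modified Illumina MiSeq flow-cell. The clusters were imaged in selection buffer, then after 15 min with 500 uM ATP at 22 °C, and this buffer/ATP cycle ran five times with NaOH stripping and re-annealing between runs. Per-cluster fluorescence ratios, summed target-cycle over summed buffer-cycle Cy3 intensity, were averaged per switch-domain sequence. Clusters outside 100-1000 RFU were excluded.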
Work on TTTCGAATTG yielded a switch fluorescence ratio of 0.975 ± 0.019. For TCAGGCTAGC, the switch fluorescence ratio was 1.07 ± 0.026. For ATCTACATTA, the switch fluorescence ratio was 1.04 ± 0.015. In the case of AGGGGGTCGA, the switch fluorescence ratio is reported as 1.01 ± 0.035. For TGTAGGGGTC, the switch fluorescence ratio was 1.01 ± 0.011. In the case of AGAGCCGGGA, the switch fluorescence ratio is reported as 0.988 ± 0.043. For TGTTGGAGGA, the switch fluorescence ratio was 0.994 ± 0.028. With CGGTTAGGGA the switch fluorescence ratio was 0.965 ± 0.03. TAATTGTTGT was tested, and the switch fluorescence ratio was 1.003 ± 0.005. GGTTTGGTTC showed a switch fluorescence ratio of 0.957 ± 0.083. With CGGTTACGAG the switch fluorescence ratio was 0.9952 ± 0.0029. ACTTTGTCTG was tested, and the switch fluorescence ratio was 0.991 ± 0.041. In the case of ATGGAACCGT, the switch fluorescence ratio is reported as 1.02 ± 0.027. GCCGAGCTCT gave a switch fluorescence ratio of 0.996 ± 0.024. Work on AGGTCTATGC yielded a switch fluorescence ratio of 0.975 ± 0.016. In the case of TTTTGGGGGA, the switch fluorescence ratio is reported as 0.999 ± 0.04. AACTTATTTT was tested, and the switch fluorescence ratio was 1 ± 0.003. Work on AGTTTCGGGA yielded a switch fluorescence ratio of 1 ± 0.033. ATGAATCTTG was tested, and the switch fluorescence ratio was 1.02 ± 0.032. GTATTTTGGC showed a switch fluorescence ratio of 1.025 ± 0.0052. In the case of CTAATCGGTT, the switch fluorescence ratio is reported as 0.97 ± 0.029. Work on GGGGGTACGA yielded a switch fluorescence ratio of 1.01 ± 0.052. Sequence AAGACGATGT has a switch fluorescence ratio of 0.995 ± 0.013. AGAGGGTTAC gave a switch fluorescence ratio of 0.999 ± 0.036. In the case of ATTATTTGAC, the switch fluorescence ratio is reported as 1.08 ± 0.067. ATACTTGTAT was tested, and the switch fluorescence ratio was 1.0048 ± 0.00054. AGTTGGGGAA gave a switch fluorescence ratio of 0.983 ± 0.031. With AATTGGGGGG the switch fluorescence ratio was 0.998 ± 0.04. AAGCGGGGGT showed a switch fluorescence ratio of 1.02 ± 0.026. In the case of GGGGTTGGAC, the switch fluorescence ratio is reported as 0.9851 ± 0.0016. In the case of GTTATAGCGT, the switch fluorescence ratio is reported as 0.963 ± 0.026. AAAAAAAATG showed a switch fluorescence ratio of 0.9991 ± 0.0042. Sequence CCAGTAGTCT has a switch fluorescence ratio of 1.05 ± 0.019. GAATTCGATC showed a switch fluorescence ratio of 1.02 ± 0.029. With ATGTGTTTGC the switch fluorescence ratio was 0.99 ± 0.053. With GGGGGGCCAT the switch fluorescence ratio was 1.01 ± 0.025. GATTGGGCTT showed a switch fluorescence ratio of 0.998 ± 0.0097. TGGGTGGTGT gave a switch fluorescence ratio of 1.016 ± 0.0034. With CCGGGGGTGC the switch fluorescence ratio was 1.24 ± 0.27. Sequence TACCTAGAAC has a switch fluorescence ratio of 1.07 ± 0.056. TAAGAGTATC was tested, and the switch fluorescence ratio was 1.01 ± 0.019. TTTTGTTATA showed a switch fluorescence ratio of 0.9783 ± 0.0036. GGTTTAAAAA was tested, and the switch fluorescence ratio was 0.969 ± 0.036. With AGTAGAGGTT the switch fluorescence ratio was 1.008 ± 0.0064. ATAGGAGGGC showed a switch fluorescence ratio of 0.935 ± 0.036. In the case of GCGCTCGAGT, the switch fluorescence ratio is reported as 1.018 ± 0.0074. CTTAGGGTGT gave a switch fluorescence ratio of 0.964 ± 0.04. With CAACCAGTGT the switch fluorescence ratio was 1.31 ± 0.026. In the case of ATAAGGAGAT, the switch fluorescence ratio is reported as 0.9759 ± 0.0042. AGGCAACCAC showed a switch fluorescence ratio of 1.23 ± 0.033. CGTATCTCTA gave a switch fluorescence ratio of 0.989 ± 0.01. For GTTGGGGGTG, the switch fluorescence ratio was 0.992 ± 0.037. With GTGGAAGGCA the switch fluorescence ratio was 0.9925 ± 0.0025. ATTTTCGGGG was tested, and the switch fluorescence ratio was 1.01 ± 0.039. For TTTACCGCTC, the switch fluorescence ratio was 1.26 ± 0.073. With TTTTTGCCTT the switch fluorescence ratio was 1 ± 0.024. CACTCATTGG was tested, and the switch fluorescence ratio was 1.039 ± 0.008. For AGAGTTTTCT, the switch fluorescence ratio was 0.9916 ± 0.0094. TGTGGTTGGG gave a switch fluorescence ratio of 0.989 ± 0.027. With AACTTTATGA the switch fluorescence ratio was 1.02 ± 0.01. Sequence GGACGCGTGG has a switch fluorescence ratio of 1.01 ± 0.018. Work on GGGAGGGTCT yielded a switch fluorescence ratio of 0.975 ± 0.016. TTTGAAGGGT gave a switch fluorescence ratio of 1.0199 ± 0.00081. GCGGGGGGAG was tested, and the switch fluorescence ratio was 1.02 ± 0.043. Sequence CAGCTGGCGC has a switch fluorescence ratio of 0.9949 ± 0.0083. Work on GAGTGTTGGT yielded a switch fluorescence ratio of 1 ± 0.022. With GTCGCATGAG the switch fluorescence ratio was 1.03 ± 0.05. Sequence CCTGTTAAAT has a switch fluorescence ratio of 1.05 ± 0.022. Work on CTGGTTGGGG yielded a switch fluorescence ratio of 1 ± 0.017. With ATATCGTGCA the switch fluorescence ratio was 0.9972 ± 0.006. GGTATACTGT showed a switch fluorescence ratio of 0.975 ± 0.029. Sequence AAAAAAGAAG has a switch fluorescence ratio of 1.01 ± 0.021. GAGAACAGTG showed a switch fluorescence ratio of 1.02 ± 0.041. Work on GAAAAAGGAA yielded a switch fluorescence ratio of 1.024 ± 0.0041. For CTAAGTTCCG, the switch fluorescence ratio was 1.015 ± 0.01. In the case of CAATCAGGAC, the switch fluorescence ratio is reported as 1.06 ± 0.041. In the case of GGGGGGACCT, the switch fluorescence ratio is reported as 1.06 ± 0.043. For TACCTGCAGC, the switch fluorescence ratio was 1.12 ± 0.064. With AATTTGGTGC the switch fluorescence ratio was 1.011 ± 0.0064. Work on TGTAAGAGAT yielded a switch fluorescence ratio of 1.01 ± 0.011. TGGAATTAGC was tested, and the switch fluorescence ratio was 1.04 ± 0.054. For ATTTGTGCAG, the switch fluorescence ratio was 0.954 ± 0.013. With TGTTTTCTAG the switch fluorescence ratio was 0.99 ± 0.022. ACAGTTTTGC showed a switch fluorescence ratio of 0.985 ± 0.02. GAAACAATTG was tested, and the switch fluorescence ratio was 0.9897 ± 0.0075. In the case of CGGGGTATTC, the switch fluorescence ratio is reported as 0.964 ± 0.078. In the case of TCGGATTTGT, the switch fluorescence ratio is reported as 1.01 ± 0.041. For GGGTAGAATT, the switch fluorescence ratio was 1.03 ± 0.039. For CCTGGGGGTC, the switch fluorescence ratio was 1.03 ± 0.024. With GGAGTTGAGG the switch fluorescence ratio was 0.98147 ± 0.00093. GTGGATATAG was tested, and the switch fluorescence ratio was 0.99333 ± 0.00046. TGATATTTCT gave a switch fluorescence ratio of 1 ± 0.011. GGATGCGCAG showed a switch fluorescence ratio of 0.987 ± 0.016. With GAGTTGAATT the switch fluorescence ratio was 0.993 ± 0.046. With GTATTTTAGG the switch fluorescence ratio was 0.999 ± 0.053. Work on AAGAGATTTG yielded a switch fluorescence ratio of 0.981 ± 0.018. TATTGGGGGA gave a switch fluorescence ratio of 0.995 ± 0.043. CGTAGGTGCA gave a switch fluorescence ratio of 1.05 ± 0.022. Work on ATTTCGATTA yielded a switch fluorescence ratio of 0.9965 ± 0.0067. Work on CCCCATTTTA yielded a switch fluorescence ratio of 1 ± 0.018. In the case of TATAAAGTTT, the switch fluorescence ratio is reported as 1.01 ± 0.0081. ATGGTTAAAT gave a switch fluorescence ratio of 0.976 ± 0.033. GTCATCATGG gave a switch fluorescence ratio of 0.986 ± 0.044. AAAGATGAAT was tested, and the switch fluorescence ratio was 1.04 ± 0.011. Work on TGCTAGGGTT yielded a switch fluorescence ratio of 1 ± 0.032. TTAGGGAGGG gave a switch fluorescence ratio of 0.998 ± 0.032. In the case of TTAGTCAGGA, the switch fluorescence ratio is reported as 1.04 ± 0.057. For GAGGGGTTTA, the switch fluorescence ratio was 1 ± 0.027. ATGTATCATG showed a switch fluorescence ratio of 1 ± 0.033. Sequence TGGCACTTTT has a switch fluorescence ratio of 1.006 ± 0.0063. With TTTTACAGCA the switch fluorescence ratio was 1.04 ± 0.03. CTAAGAGGCG gave a switch fluorescence ratio of 0.988 ± 0.024. Work on TTCTCACGTC yielded a switch fluorescence ratio of 1.01 ± 0.082. In the case of CAAAATATGC, the switch fluorescence ratio is reported as 1.14 ± 0.12. GGAGATTGTG showed a switch fluorescence ratio of 0.9766 ± 0.0043. With ATAGGGCCAG the switch fluorescence ratio was 1.06 ± 0.067. TAAATTTATA showed a switch fluorescence ratio of 0.992 ± 0.021. Sequence AAGGGAAACA has a switch fluorescence ratio of 1.04 ± 0.072. TTTTTAGGCA showed a switch fluorescence ratio of 1 ± 0.042. For GGGTCTGGGG, the switch fluorescence ratio was 0.995 ± 0.022. In the case of AGCCATGTGA, the switch fluorescence ratio is reported as 1.01 ± 0.011. Work on GGCTACGTTT yielded a switch fluorescence ratio of 1.05 ± 0.084. In the case of GGCCGACTTG, the switch fluorescence ratio is reported as 1 ± 0.043. For TATGGCCTGG, the switch fluorescence ratio was 1.04 ± 0.015. Sequence ATAAGACCCG has a switch fluorescence ratio of 0.98609 ± 0.00056. With GATGGGGTTT the switch fluorescence ratio was 1 ± 0.014. For TGCACCTTGG, the switch fluorescence ratio was 1.014 ± 0.0099. In the case of CATTGAGCGG, the switch fluorescence ratio is reported as 1 ± 0.018. For TAGGCATCGT, the switch fluorescence ratio was 0.969 ± 0.019. Sequence GGGCCATAAG has a switch fluorescence ratio of 0.988 ± 0.052. ACTTCAAGGA showed a switch fluorescence ratio of 1.04 ± 0.069. TTTCTAGGTG showed a switch fluorescence ratio of 2.06 ± 0.23. Work on GGTTGTGGGT yielded a switch fluorescence ratio of 0.996 ± 0.015. Sequence TTGTTATATT has a switch fluorescence ratio of 0.983 ± 0.026. In the case of TTACAGCCTG, the switch fluorescence ratio is reported as 1 ± 0.04. Sequence GGTCCGTAGG has a switch fluorescence ratio of 1.01 ± 0.033. CGCTTGTCAC gave a switch fluorescence ratio of 1.18 ± 0.021. With GCTCGTATTA the switch fluorescence ratio was 1 ± 0.016. Sequence TAGTTTTGAA has a switch fluorescence ratio of 0.997 ± 0.072. Sequence GTAGTCGGAT has a switch fluorescence ratio of 1.002 ± 0.0021. In the case of TTGGTTATCG, the switch fluorescence ratio is reported as 0.97068 ± 0.00069. TTAATTCCAG gave a switch fluorescence ratio of 1.01 ± 0.029. Sequence GATCCGGCGT has a switch fluorescence ratio of 1.03 ± 0.053. For CAGCTTGGGG, the switch fluorescence ratio was 1.019 ± 0.0089. With CGTGTTTTAG the switch fluorescence ratio was 1 ± 0.033. Work on GGCTCCGGCG yielded a switch fluorescence ratio of 1.04 ± 0.032. Work on CGCGTAATAT yielded a switch fluorescence ratio of 2.07 ± 0.069. With TTTTGTAGGT the switch fluorescence ratio was 0.973 ± 0.056. For ATGTTCGGCG, the switch fluorescence ratio was 1.01 ± 0.036. Work on CGGTGAGGGA yielded a switch fluorescence ratio of 0.978 ± 0.044. Sequence GATATTTTTT has a switch fluorescence ratio of 0.989 ± 0.012. For AAGTTATCAT, the switch fluorescence ratio was 0.964 ± 0.019. In the case of TGCGTGAGGG, the switch fluorescence ratio is reported as 1.04 ± 0.016. For CATAGAGTGT, the switch fluorescence ratio was 1 ± 0.021. For AAATTGGGAA, the switch fluorescence ratio was 1.01 ± 0.035. Work on TTTAGATTGA yielded a switch fluorescence ratio of 0.99606 ± 0.00096. GCATTAAGAT gave a switch fluorescence ratio of 1.02 ± 0.025.
